Starred links: 1 amine or outer side, 2 acyl side, 3 side chain; linkers in the order of their positions; H or OH if unused. Non-standard residues stand in square brackets, D forms with d. Groups on a side chain read outwards from the residue. No end group written: not given here. *: point of attachment. C20 diacid = O=C(O)CCCCCCCCCCCCCCCCCCC(=O)*; C18 diacid = O=C(O)CCCCCCCCCCCCCCCCC(=O)*; γGlu = O=C(O)[C@H](CCC(=O)[*:2])N[*:1]; αMeF = C[C@](N)(Cc1ccccc1)C(=O)O; AEEA = NCCOCCOCC(=O)O; Aib = CC(C)(N)C(=O)O
B1: Peptide 136 (peptide)
peptide: H[Aib]QGTFTSDVSK[αMeF]LDSK([γGlu-γGlu-AEEA-AEEA-γGlu-γGlu-C18 diacid])RARDFVRWLLE[Aib]G-OH
modifications: N-terminus assumed
SMILES: CC(C)C[C@H](NC(=O)[C@H](Cc1c[nH]c2ccccc12)NC(=O)[C@H](CCCNC(=N)N)NC(=O)[C@@H](NC(=O)[C@H](Cc1ccccc1)NC(=O)[C@H](CC(=O)O)NC(=O)[C@H](CCCNC(=N)N)NC(=O)[C@H](C)NC(=O)[C@H](CCCNC(=N)N)NC(=O)[C@H](CCCCNC(=O)CC[C@H](NC(=O)CC[C@H](NC(=O)COCCOCCNC(=O)COCCOCCNC(=O)CC[C@H](NC(=O)CC[C@H](NC(=O)CCCCCCCCCCCCCCCCC(=O)O)C(=O)O)C(=O)O)C(=O)O)C(=O)O)NC(=O)[C@H](CO)NC(=O)[C@H](CC(=O)O)NC(=O)[C@H](CC(C)C)NC(=O)[C@](C)(Cc1ccccc1)NC(=O)[C@H](CCCCN)NC(=O)[C@H](CO)NC(=O)[C@@H](NC(=O)[C@H](CC(=O)O)NC(=O)[C@H](CO)NC(=O)[C@@H](NC(=O)[C@H](Cc1ccccc1)NC(=O)[C@@H](NC(=O)CNC(=O)[C@H](CCC(N)=O)NC(=O)C(C)(C)NC(=O)[C@@H](N)Cc1c[nH]cn1)[C@@H](C)O)[C@@H](C)O)C(C)C)C(C)C)C(=O)N[C@@H](CC(C)C)C(=O)N[C@@H](CCC(=O)O)C(=O)NC(C)(C)C(=O)NCC(=O)O
B2: Peptide 137 (peptide)
peptide: H[Aib]QGTFTSDVSK[αMeF]LDSK([γGlu-γGlu-AEEA-AEEA-γGlu-γGlu-C18 diacid])RAQDFVRWLLEG[Aib]-OH
modifications: N-terminus assumed
SMILES: CC(C)C[C@H](NC(=O)[C@H](CC(C)C)NC(=O)[C@H](Cc1c[nH]c2ccccc12)NC(=O)[C@H](CCCNC(=N)N)NC(=O)[C@@H](NC(=O)[C@H](Cc1ccccc1)NC(=O)[C@H](CC(=O)O)NC(=O)[C@H](CCC(N)=O)NC(=O)[C@H](C)NC(=O)[C@H](CCCNC(=N)N)NC(=O)[C@H](CCCCNC(=O)CC[C@H](NC(=O)CC[C@H](NC(=O)COCCOCCNC(=O)COCCOCCNC(=O)CC[C@H](NC(=O)CC[C@H](NC(=O)CCCCCCCCCCCCCCCCC(=O)O)C(=O)O)C(=O)O)C(=O)O)C(=O)O)NC(=O)[C@H](CO)NC(=O)[C@H](CC(=O)O)NC(=O)[C@H](CC(C)C)NC(=O)[C@](C)(Cc1ccccc1)NC(=O)[C@H](CCCCN)NC(=O)[C@H](CO)NC(=O)[C@@H](NC(=O)[C@H](CC(=O)O)NC(=O)[C@H](CO)NC(=O)[C@@H](NC(=O)[C@H](Cc1ccccc1)NC(=O)[C@@H](NC(=O)CNC(=O)[C@H](CCC(N)=O)NC(=O)C(C)(C)NC(=O)[C@@H](N)Cc1c[nH]cn1)[C@@H](C)O)[C@@H](C)O)C(C)C)C(C)C)C(=O)N[C@@H](CCC(=O)O)C(=O)NCC(=O)NC(C)(C)C(=O)O
B3: Peptide 138 (peptide)
peptide: H[Aib]QGTFTSDVSK[αMeF]LDSK([γGlu-γGlu-AEEA-AEEA-γGlu-γGlu-C18 diacid])RAQDFVRWLLE[Aib]G-OH
modifications: N-terminus assumed
SMILES: CC(C)C[C@H](NC(=O)[C@H](Cc1c[nH]c2ccccc12)NC(=O)[C@H](CCCNC(=N)N)NC(=O)[C@@H](NC(=O)[C@H](Cc1ccccc1)NC(=O)[C@H](CC(=O)O)NC(=O)[C@H](CCC(N)=O)NC(=O)[C@H](C)NC(=O)[C@H](CCCNC(=N)N)NC(=O)[C@H](CCCCNC(=O)CC[C@H](NC(=O)CC[C@H](NC(=O)COCCOCCNC(=O)COCCOCCNC(=O)CC[C@H](NC(=O)CC[C@H](NC(=O)CCCCCCCCCCCCCCCCC(=O)O)C(=O)O)C(=O)O)C(=O)O)C(=O)O)NC(=O)[C@H](CO)NC(=O)[C@H](CC(=O)O)NC(=O)[C@H](CC(C)C)NC(=O)[C@](C)(Cc1ccccc1)NC(=O)[C@H](CCCCN)NC(=O)[C@H](CO)NC(=O)[C@@H](NC(=O)[C@H](CC(=O)O)NC(=O)[C@H](CO)NC(=O)[C@@H](NC(=O)[C@H](Cc1ccccc1)NC(=O)[C@@H](NC(=O)CNC(=O)[C@H](CCC(N)=O)NC(=O)C(C)(C)NC(=O)[C@@H](N)Cc1c[nH]cn1)[C@@H](C)O)[C@@H](C)O)C(C)C)C(C)C)C(=O)N[C@@H](CC(C)C)C(=O)N[C@@H](CCC(=O)O)C(=O)NC(C)(C)C(=O)NCC(=O)O
B4: Peptide 3 (peptide)
peptide: HSQGS[αMeF]TSDVSK[αMeF]LDSK([γGlu-C18 diacid])AAQDFVQWIANT-NH2
modifications: N-terminus assumed
SMILES: CC[C@H](C)[C@H](NC(=O)[C@H](Cc1c[nH]c2ccccc12)NC(=O)[C@H](CCC(N)=O)NC(=O)[C@@H](NC(=O)[C@H](Cc1ccccc1)NC(=O)[C@H](CC(=O)O)NC(=O)[C@H](CCC(N)=O)NC(=O)[C@H](C)NC(=O)[C@H](C)NC(=O)[C@H](CCCCNC(=O)CC[C@H](NC(=O)CCCCCCCCCCCCCCCCC(=O)O)C(=O)O)NC(=O)[C@H](CO)NC(=O)[C@H](CC(=O)O)NC(=O)[C@H](CC(C)C)NC(=O)[C@](C)(Cc1ccccc1)NC(=O)[C@H](CCCCN)NC(=O)[C@H](CO)NC(=O)[C@@H](NC(=O)[C@H](CC(=O)O)NC(=O)[C@H](CO)NC(=O)[C@@H](NC(=O)[C@](C)(Cc1ccccc1)NC(=O)[C@H](CO)NC(=O)CNC(=O)[C@H](CCC(N)=O)NC(=O)[C@H](CO)NC(=O)[C@@H](N)Cc1c[nH]cn1)[C@@H](C)O)C(C)C)C(C)C)C(=O)N[C@@H](C)C(=O)N[C@@H](CC(N)=O)C(=O)N[C@H](C(N)=O)[C@@H](C)O
B5: Peptide 141 (peptide)
peptide: H[Aib]QGTFTSDVSK[αMeF]LDSK([AEEA-AEEA-γGlu-C18 diacid])RAQDFVAWLLE[Aib]G-OH
modifications: N-terminus assumed
SMILES: CC(C)C[C@H](NC(=O)[C@H](Cc1c[nH]c2ccccc12)NC(=O)[C@H](C)NC(=O)[C@@H](NC(=O)[C@H](Cc1ccccc1)NC(=O)[C@H](CC(=O)O)NC(=O)[C@H](CCC(N)=O)NC(=O)[C@H](C)NC(=O)[C@H](CCCNC(=N)N)NC(=O)[C@H](CCCCNC(=O)COCCOCCNC(=O)COCCOCCNC(=O)CC[C@H](NC(=O)CCCCCCCCCCCCCCCCC(=O)O)C(=O)O)NC(=O)[C@H](CO)NC(=O)[C@H](CC(=O)O)NC(=O)[C@H](CC(C)C)NC(=O)[C@](C)(Cc1ccccc1)NC(=O)[C@H](CCCCN)NC(=O)[C@H](CO)NC(=O)[C@@H](NC(=O)[C@H](CC(=O)O)NC(=O)[C@H](CO)NC(=O)[C@@H](NC(=O)[C@H](Cc1ccccc1)NC(=O)[C@@H](NC(=O)CNC(=O)[C@H](CCC(N)=O)NC(=O)C(C)(C)NC(=O)[C@@H](N)Cc1c[nH]cn1)[C@@H](C)O)[C@@H](C)O)C(C)C)C(C)C)C(=O)N[C@@H](CC(C)C)C(=O)N[C@@H](CCC(=O)O)C(=O)NC(C)(C)C(=O)NCC(=O)O
B6: Peptide 142 (peptide)
peptide: H[Aib]QGTFTSDVSK[αMeF]LDSK([AEEA-AEEA-γGlu-C18 diacid])RARDFVAWLLE[Aib]G-OH
modifications: N-terminus assumed
SMILES: CC(C)C[C@H](NC(=O)[C@H](Cc1c[nH]c2ccccc12)NC(=O)[C@H](C)NC(=O)[C@@H](NC(=O)[C@H](Cc1ccccc1)NC(=O)[C@H](CC(=O)O)NC(=O)[C@H](CCCNC(=N)N)NC(=O)[C@H](C)NC(=O)[C@H](CCCNC(=N)N)NC(=O)[C@H](CCCCNC(=O)COCCOCCNC(=O)COCCOCCNC(=O)CC[C@H](NC(=O)CCCCCCCCCCCCCCCCC(=O)O)C(=O)O)NC(=O)[C@H](CO)NC(=O)[C@H](CC(=O)O)NC(=O)[C@H](CC(C)C)NC(=O)[C@](C)(Cc1ccccc1)NC(=O)[C@H](CCCCN)NC(=O)[C@H](CO)NC(=O)[C@@H](NC(=O)[C@H](CC(=O)O)NC(=O)[C@H](CO)NC(=O)[C@@H](NC(=O)[C@H](Cc1ccccc1)NC(=O)[C@@H](NC(=O)CNC(=O)[C@H](CCC(N)=O)NC(=O)C(C)(C)NC(=O)[C@@H](N)Cc1c[nH]cn1)[C@@H](C)O)[C@@H](C)O)C(C)C)C(C)C)C(=O)N[C@@H](CC(C)C)C(=O)N[C@@H](CCC(=O)O)C(=O)NC(C)(C)C(=O)NCC(=O)O
B7: Peptide 42 (peptide)
peptide: H[Aib]QGTFTSDVSK[αMeF]LDSK([AEEA-AEEA-γGlu-C18 diacid])RAQDFVQ[Aib]LVAT-OH
modifications: N-terminus assumed
SMILES: CC(C)C[C@H](NC(=O)C(C)(C)NC(=O)[C@H](CCC(N)=O)NC(=O)[C@@H](NC(=O)[C@H](Cc1ccccc1)NC(=O)[C@H](CC(=O)O)NC(=O)[C@H](CCC(N)=O)NC(=O)[C@H](C)NC(=O)[C@H](CCCNC(=N)N)NC(=O)[C@H](CCCCNC(=O)COCCOCCNC(=O)COCCOCCNC(=O)CC[C@H](NC(=O)CCCCCCCCCCCCCCCCC(=O)O)C(=O)O)NC(=O)[C@H](CO)NC(=O)[C@H](CC(=O)O)NC(=O)[C@H](CC(C)C)NC(=O)[C@](C)(Cc1ccccc1)NC(=O)[C@H](CCCCN)NC(=O)[C@H](CO)NC(=O)[C@@H](NC(=O)[C@H](CC(=O)O)NC(=O)[C@H](CO)NC(=O)[C@@H](NC(=O)[C@H](Cc1ccccc1)NC(=O)[C@@H](NC(=O)CNC(=O)[C@H](CCC(N)=O)NC(=O)C(C)(C)NC(=O)[C@@H](N)Cc1c[nH]cn1)[C@@H](C)O)[C@@H](C)O)C(C)C)C(C)C)C(=O)N[C@H](C(=O)N[C@@H](C)C(=O)N[C@H](C(=O)O)[C@@H](C)O)C(C)C

These binders were tested against human glucagon receptor (human, UniProt P47871) (assay: cell-based or functional assay).

Binder	cAMP production, hGluc-R EC50 (pM)
H[Aib]QGTFTSDVSK[αMeF]LDSK([γGlu-γGlu-AEEA-AEEA-γGlu-γGlu-C20 diacid])RAQDFVRWLLE[Aib]G-OH [Peptide 139]	984 pM
B1	509 pM
B2	268 pM
B3	184 pM
B4	149 pM
B5	392 pM
B6	108 pM
B7	8190 pM

Each binder was assayed against human GLP-1 receptor (human, UniProt P43220) (assay: cell-based or functional assay).

Binder	cAMP production, hGLP-1R EC50 (pM)
H[Aib]QGTFTSDVSK[αMeF]LDSK([γGlu-γGlu-AEEA-AEEA-γGlu-γGlu-C20 diacid])RAQDFVRWLLE[Aib]G-OH [Peptide 139]	630 pM
B1	45.2 pM
B2	143 pM
B3	104 pM
B4	69 pM
B5	264 pM
B6	59.4 pM
B7	665 pM

— patent US12630600B2 (MEDIMMUNE LIMITED, priority 2022, dated 2026)
